Source: patent US20050260657A1

Tests used:
[1] = biological target: IP3R1 (inositol 1,4,5-trisphosphate receptor type 1), untagged, expressed in cells (mouse) (UniProt P11881); assay: cell-based or functional assay
[2] = biological target: endogenous IP3R1 of HeLa cells (UniProt Q14643); assay: cell-based or functional assay
Chain of endogenous IP3R1 of HeLa cells (Q14643 whole entry): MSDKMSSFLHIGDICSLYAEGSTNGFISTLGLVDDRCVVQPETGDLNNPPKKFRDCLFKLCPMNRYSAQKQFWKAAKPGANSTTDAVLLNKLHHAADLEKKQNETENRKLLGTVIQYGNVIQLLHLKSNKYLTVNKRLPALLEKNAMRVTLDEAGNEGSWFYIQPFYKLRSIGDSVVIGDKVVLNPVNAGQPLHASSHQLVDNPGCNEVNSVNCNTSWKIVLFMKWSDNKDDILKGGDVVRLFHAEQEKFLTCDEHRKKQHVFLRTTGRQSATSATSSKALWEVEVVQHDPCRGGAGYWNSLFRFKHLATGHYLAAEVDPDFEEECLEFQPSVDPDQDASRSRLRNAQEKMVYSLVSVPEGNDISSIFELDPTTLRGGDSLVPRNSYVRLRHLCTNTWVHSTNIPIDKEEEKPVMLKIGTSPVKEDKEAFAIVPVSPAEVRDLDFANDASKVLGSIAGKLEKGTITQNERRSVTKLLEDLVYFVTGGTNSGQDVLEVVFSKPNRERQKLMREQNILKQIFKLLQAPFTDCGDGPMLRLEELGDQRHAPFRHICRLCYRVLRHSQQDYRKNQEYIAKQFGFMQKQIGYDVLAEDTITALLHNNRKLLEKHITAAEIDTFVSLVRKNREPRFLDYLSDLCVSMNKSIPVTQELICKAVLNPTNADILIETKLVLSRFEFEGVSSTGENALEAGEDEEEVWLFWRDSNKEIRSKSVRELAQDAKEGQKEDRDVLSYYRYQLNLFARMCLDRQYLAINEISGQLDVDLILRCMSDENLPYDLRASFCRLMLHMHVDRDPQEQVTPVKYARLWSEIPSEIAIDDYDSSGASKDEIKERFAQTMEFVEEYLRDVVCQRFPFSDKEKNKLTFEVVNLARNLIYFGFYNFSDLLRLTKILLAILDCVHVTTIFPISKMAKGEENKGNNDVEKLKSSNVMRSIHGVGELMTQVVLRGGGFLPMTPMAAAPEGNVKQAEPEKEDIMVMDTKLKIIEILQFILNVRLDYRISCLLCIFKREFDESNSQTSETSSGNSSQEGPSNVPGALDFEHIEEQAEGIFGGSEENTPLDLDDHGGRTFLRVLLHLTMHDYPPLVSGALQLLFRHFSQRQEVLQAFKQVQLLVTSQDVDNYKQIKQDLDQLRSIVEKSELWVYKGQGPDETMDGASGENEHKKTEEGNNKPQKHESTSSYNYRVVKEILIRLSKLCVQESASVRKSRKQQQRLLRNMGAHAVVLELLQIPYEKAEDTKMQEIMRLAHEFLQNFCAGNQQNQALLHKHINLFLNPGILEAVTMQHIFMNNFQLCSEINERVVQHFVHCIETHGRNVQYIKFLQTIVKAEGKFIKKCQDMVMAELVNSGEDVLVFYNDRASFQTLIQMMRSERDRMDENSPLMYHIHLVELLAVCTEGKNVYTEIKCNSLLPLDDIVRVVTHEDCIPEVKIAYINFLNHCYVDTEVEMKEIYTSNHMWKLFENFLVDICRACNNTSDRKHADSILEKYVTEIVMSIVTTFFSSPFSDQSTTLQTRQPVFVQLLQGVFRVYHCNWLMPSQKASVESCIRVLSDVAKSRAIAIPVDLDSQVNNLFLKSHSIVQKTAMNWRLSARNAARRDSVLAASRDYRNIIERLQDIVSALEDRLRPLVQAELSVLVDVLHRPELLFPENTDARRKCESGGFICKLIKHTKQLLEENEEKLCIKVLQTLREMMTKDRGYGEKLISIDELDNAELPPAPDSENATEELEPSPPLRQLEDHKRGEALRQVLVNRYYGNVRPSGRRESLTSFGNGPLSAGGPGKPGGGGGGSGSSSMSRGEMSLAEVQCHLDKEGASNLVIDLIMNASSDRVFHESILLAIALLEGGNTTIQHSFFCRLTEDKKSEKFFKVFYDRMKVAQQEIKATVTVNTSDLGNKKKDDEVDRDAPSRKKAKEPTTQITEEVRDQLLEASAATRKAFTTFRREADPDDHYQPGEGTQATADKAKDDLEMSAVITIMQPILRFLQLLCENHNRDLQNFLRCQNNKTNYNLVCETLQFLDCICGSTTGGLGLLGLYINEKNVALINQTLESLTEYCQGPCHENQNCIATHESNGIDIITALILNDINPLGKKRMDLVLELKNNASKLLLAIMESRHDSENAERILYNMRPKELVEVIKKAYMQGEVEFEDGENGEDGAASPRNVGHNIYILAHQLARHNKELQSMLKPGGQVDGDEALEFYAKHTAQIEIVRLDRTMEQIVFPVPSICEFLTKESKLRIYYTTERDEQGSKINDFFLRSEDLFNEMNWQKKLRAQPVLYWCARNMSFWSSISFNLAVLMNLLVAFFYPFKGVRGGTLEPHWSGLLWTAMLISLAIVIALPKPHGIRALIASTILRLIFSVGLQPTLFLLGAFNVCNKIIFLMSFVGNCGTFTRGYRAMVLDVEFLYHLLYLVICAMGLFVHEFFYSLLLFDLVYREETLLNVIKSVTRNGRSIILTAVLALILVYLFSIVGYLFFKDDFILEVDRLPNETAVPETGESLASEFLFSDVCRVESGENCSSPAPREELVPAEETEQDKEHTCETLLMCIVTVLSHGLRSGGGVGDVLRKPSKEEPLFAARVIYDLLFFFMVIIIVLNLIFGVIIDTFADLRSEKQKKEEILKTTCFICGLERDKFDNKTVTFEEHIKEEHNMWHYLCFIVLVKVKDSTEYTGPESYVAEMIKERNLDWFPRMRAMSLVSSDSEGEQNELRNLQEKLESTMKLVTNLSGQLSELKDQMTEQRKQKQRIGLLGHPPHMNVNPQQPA

| peak amplitude of BCR-induced Ca2+ release in DT40-KMN60 cells, percent of non-transfected cells [1] | peak amplitude of ATP-induced Ca2+ transient in HeLa cells, percent of non-transfected cells [2] | Ca2+ response in siERp44-3U-pretreated HeLa cells compared with RFP-RDEL-transfected cells [2] | Substance |
| --- | --- | --- | --- |
| 60.6% | 69.3% |  | RFP-ERp44 (red fluorescent protein-tagged ERp44) (from UniProt Q9D1Q6 30-406) |
|  |  | 77.1% | RFP-ERp44-C58S (from UniProt Q9D1Q6 30-406) |
